Among the data in US20130131320A1 (published 2013) are Ka and koff values, retold here.

Assay [1] addresses T1, soluble EGFR (human epithelial cell growth factor receptor 1, Her1) (human, UniProt P00533 25-645). Description: ITC.
For assay [2], the target named is T1, soluble EGFR (human epithelial cell …). In words: SPR. (Surface plasmon resonance follows binding to a sensor surface in real time, without labels.)
The target is the same in assay [3]. Description: SPR. This is another data set of the same source.

B1: h528 Fv comprising mutant VL LRL (other)
VH: QVQLVQSGAEVKKPGASVKVSCKASGYTFTSYWMHWVRQAPGQGLEWMGNIYPGSGGTNYAEKFKNRVTMTRDTSISTAYMELSRLRSDDTAVYYCARSGGPYFFDYWGQGTLVTVSS
VL: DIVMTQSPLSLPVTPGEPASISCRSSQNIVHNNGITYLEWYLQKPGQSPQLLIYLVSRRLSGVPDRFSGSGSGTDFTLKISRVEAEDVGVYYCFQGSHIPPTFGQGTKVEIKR
What is called koff is the first-order rate constant of dissociation. A lower koff goes with slow dissociation. As for B1, the Ka was determined as 4.1e+09 M⁻¹ in assay [1] and 3.5e+08 M⁻¹ in assay [2]. This molecule displayed a koff in assay [3] of 0.00085 s⁻¹.

B2: h528Fv WT (other)
VH: QVQLVQSGAEVKKPGASVKVSCKASGYTFTSYWMHWVRQAPGQGLEWMGNIYPGSGGTNYAEKFKNRVTMTRDTSISTAYMELSRLRSDDTAVYYCARSGGPYFFDYWGQGTLVTVSS
VL: DIVMTQSPLSLPVTPGEPASISCRSSQNIVHNNGITYLEWYLQKPGQSPQLLIYKVSDRFSGVPDRFSGSGSGTDFTLKISRVEAEDVGVYYCFQGSHIPPTFGQGTKVEIKR
Turning to B2, the Ka amounted to 2.1e+07 M⁻¹ in assay [1] and 4e+07 M⁻¹ in assay [2]. The molecule further returned a koff in assay [3] of 0.006 s⁻¹.

B3: h528 Fv comprising mutant VL LRS (other)
VH: QVQLVQSGAEVKKPGASVKVSCKASGYTFTSYWMHWVRQAPGQGLEWMGNIYPGSGGTNYAEKFKNRVTMTRDTSISTAYMELSRLRSDDTAVYYCARSGGPYFFDYWGQGTLVTVSS
VL: DIVMTQSPLSLPVTPGEPASISCRSSQNIVHNNGITYLEWYLQKPGQSPQLLIYLVSRRSSGVPDRFSGSGSGTDFTLKISRVEAEDVGVYYCFQGSHIPPTFGQGTKVEIKR
On to B3, for which the Ka was 1.05e+09 M⁻¹ in assay [1] and 6.8e+08 M⁻¹ in assay [2]. This molecule returned a dissociation rate constant (koff) in assay [3] of 0.00078 s⁻¹.
